Changes are numbered by the printed parent chain.
T1: recombinant mouse-human-mouse (mhm) chimeric HGF protein containing the human V495-L585 HGF sequence disposed … (mouse-human-mouse chimera, UniProt Q08048 56-728)
T1 construct: CHO supernatant was used; also called mhm chimera (V495-L585); MHM chimera (495-585)
T1 chain: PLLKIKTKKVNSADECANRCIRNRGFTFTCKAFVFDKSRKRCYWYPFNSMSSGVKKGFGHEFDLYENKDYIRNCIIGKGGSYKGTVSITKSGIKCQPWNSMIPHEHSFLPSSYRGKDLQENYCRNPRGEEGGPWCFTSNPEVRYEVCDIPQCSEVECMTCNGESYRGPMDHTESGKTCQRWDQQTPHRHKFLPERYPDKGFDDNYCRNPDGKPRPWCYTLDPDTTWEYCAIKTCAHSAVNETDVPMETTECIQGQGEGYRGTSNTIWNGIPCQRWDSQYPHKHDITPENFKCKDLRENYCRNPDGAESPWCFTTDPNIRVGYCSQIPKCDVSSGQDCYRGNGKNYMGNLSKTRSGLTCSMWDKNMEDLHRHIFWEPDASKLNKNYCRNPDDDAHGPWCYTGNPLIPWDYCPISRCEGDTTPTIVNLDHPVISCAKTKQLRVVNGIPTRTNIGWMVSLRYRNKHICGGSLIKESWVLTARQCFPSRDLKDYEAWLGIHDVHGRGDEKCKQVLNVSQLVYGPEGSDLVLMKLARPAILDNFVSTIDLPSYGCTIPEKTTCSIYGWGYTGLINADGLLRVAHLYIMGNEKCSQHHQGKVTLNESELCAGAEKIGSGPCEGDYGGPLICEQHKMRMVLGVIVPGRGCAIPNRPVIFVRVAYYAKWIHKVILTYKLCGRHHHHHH

B1: anti-hHGF monoclonal antibody 2F8 (antibody, mouse IgG1, kappa, V domains shown)
VH: QVQLKQSGAELVRPGTSVKMSCKASGYTFTTYYIHWVNQRPGQGLEWIGKIGPGSGSTYYNEMFKDKATLTVDTSSSTAYMQLSSLTSDDSAVYFCARRGLGRGFDYWGQGTTLTVSS
VL: DIVLTQSPASLAVSLGQRATISCKASQSVDYDGNSYINWYQQKPGQPPKVLIYVASNLESGIPARFSGSGSGTDFTLNIHPVEEEDAATYYCQQSIEDPPTFGAGTKLELKR
notes: Murine IgG1 kappa from hybridoma
B2: anti-hHGF monoclonal antibody 3D11 (antibody, mouse IgG1, kappa, V domains shown)
VH: QVQLKESGPGLVAPSQSLSITCTVSGFSLTSYSLHWVRQPPGKGLEWLGVIWAGGNTNYNSSLMSRLTIRKDNSKSQVFLKMNSLQTDDTAMYYCARERFAYWGQGTLVTVSA
VL: QIVLTQSPAIMSAYPGEKVTMTCSASSSVSYMHWYQQKSGTSPKRWIYDTSKLASGVPARFSGSGSGTSYSLTISSMEAEDAATYYCQQWSSNPLTFGAGTKLELKR
notes: as for B1
B3: anti-hHGF monoclonal antibody 1A3 (antibody, mouse IgG1, kappa, V domains shown)
VH: EVQLVESGGGLVQPGGSLKLSCAASEFTFSNYYMSWVRQTPEKRLQWVAYISPGGGSSYYPASVKGRFTISRDNAKNTLYLQMSSLKSEDTAMYYCARQGDGYYGDYAMDYWGQGTSVTVSS
VL: DIQMTQSPASLSVSVGETVTITCRASENIYSNLAWYQQKQGKSPQLLVYAATNLADGVPSRFSGSGSGTQFSLKINSLQSEDFGTYYCQHFWGTPYTFGGGTKLEIKR
notes: as for B1
B4: anti-hHGF monoclonal antibody 3A12 (antibody, mouse IgG1, kappa, V domains shown)
VH: B3 VH with L20I, E26G, Y33F, Q46E, P53S, S58T, A62D, S84N, A97V
VL: B3 VL with S31I, Y49H, N53K, F71Y, T85S
notes: as for B1
B5: anti-hHGF monoclonal antibody 3B6 (antibody, mouse IgG1, kappa, V domains shown)
VH: QVQLQQSGAELVRPGSSVKISCKASGYVFSSYWMNWVKQRPGQGLEWIGQIYPGDGDSNYNGNFKGKATLTADKSSSTAYMQLSSLTSEDSAVYFCASQLGLRENYFDYWGQGTTLTVSS
VL: DIKMTQSPSSMYASLGERVTITCKASQDIKSYLSWFQQKPGKSPKTLIYRVNRLVDGVPSRFSGSGSGQDSSLTITSLENEDMGIYYCLQYDEFPFTFGGGTKLEIKR
notes: as for B1

molecular target: T2, recombinant human HGF (R&D Systems, Catalog No. 294-HGN-025) (human, UniProt P14210 32-728); test: cell-based or functional assay
T2 sequence (P14210 32-728 limits assumed): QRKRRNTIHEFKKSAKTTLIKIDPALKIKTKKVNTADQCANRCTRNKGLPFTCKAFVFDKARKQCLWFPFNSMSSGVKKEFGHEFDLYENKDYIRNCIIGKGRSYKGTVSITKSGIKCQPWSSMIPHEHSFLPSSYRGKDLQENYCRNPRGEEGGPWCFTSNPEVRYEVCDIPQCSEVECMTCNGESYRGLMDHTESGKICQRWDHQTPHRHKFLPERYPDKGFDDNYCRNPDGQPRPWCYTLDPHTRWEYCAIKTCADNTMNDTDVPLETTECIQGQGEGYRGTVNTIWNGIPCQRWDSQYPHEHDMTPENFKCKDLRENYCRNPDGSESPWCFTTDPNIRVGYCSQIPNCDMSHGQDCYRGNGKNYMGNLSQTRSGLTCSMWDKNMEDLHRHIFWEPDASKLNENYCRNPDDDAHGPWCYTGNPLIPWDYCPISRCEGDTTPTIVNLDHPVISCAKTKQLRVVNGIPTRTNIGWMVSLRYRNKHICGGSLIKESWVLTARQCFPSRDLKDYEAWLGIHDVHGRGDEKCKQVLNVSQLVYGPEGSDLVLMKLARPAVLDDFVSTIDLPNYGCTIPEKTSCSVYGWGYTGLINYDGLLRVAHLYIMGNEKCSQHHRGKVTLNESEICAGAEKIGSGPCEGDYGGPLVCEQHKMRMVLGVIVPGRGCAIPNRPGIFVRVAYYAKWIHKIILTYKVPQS

IC50, neutralization of HGF stimulated BrdU incorporation in 4 MBr-5 cells [nM]	Binder
19.2	B1
51.1	B2
4.69	B3
30.3	B4
36.1	B5

molecular target: T2, recombinant human HGF (R&D Systems, …); test: cell-based or functional assay; remark: another data set of the same source

EC50, inhibition of HGF-stimulated c-Met phosphorylation in PC-3 cells, Average of Two Trials [nM]	Binder
1.39	B1
2.28	B2
0.684	B3
2	B4
1.01	B5

molecular target: T3, recombinant mouse HGF (R&D Systems) (mouse, UniProt Q08048 33-728); test: SPR, antibody immobilized, HGF protein injected, 25 C
T3 construct: Bought protein, construct not described; also called rmHGF (R&D Systems); murine HGF
Procedure: (§1) Each antibody was immobilized on a carboxymethylated dextran CM5 sensor chip (BIAcore, Catalog No. BR-1006-68) by amine coupling (BIAcore, Catalog No. BR-1000-50) using a standard coupling protocol according to manufacturer's instructions.
(§2) Analyses were performed at 25° C. using PBS (GIBCO, Catalog No. 14040-133) containing 0.05% surfactant P20 (BIAcore, Catalog No. R-1000-54), 2 mg/mL BSA (EMD, Catalog No. 2930) and 10 mg/mL CM-Dextran Sodium salt (Fluka, Catalog No. 86524) as running buffer. […] The resulting binding was determined as resonance units (RU) over baseline 30 seconds after the end of injection. […] Non-specific binding was monitored by comparing binding to a control surface where mouse IgG (Rockland, Catalog No. 010-0102) was immobilized using the same amine coupling procedure.

T3 sequence (Q08048 33-728 limits assumed): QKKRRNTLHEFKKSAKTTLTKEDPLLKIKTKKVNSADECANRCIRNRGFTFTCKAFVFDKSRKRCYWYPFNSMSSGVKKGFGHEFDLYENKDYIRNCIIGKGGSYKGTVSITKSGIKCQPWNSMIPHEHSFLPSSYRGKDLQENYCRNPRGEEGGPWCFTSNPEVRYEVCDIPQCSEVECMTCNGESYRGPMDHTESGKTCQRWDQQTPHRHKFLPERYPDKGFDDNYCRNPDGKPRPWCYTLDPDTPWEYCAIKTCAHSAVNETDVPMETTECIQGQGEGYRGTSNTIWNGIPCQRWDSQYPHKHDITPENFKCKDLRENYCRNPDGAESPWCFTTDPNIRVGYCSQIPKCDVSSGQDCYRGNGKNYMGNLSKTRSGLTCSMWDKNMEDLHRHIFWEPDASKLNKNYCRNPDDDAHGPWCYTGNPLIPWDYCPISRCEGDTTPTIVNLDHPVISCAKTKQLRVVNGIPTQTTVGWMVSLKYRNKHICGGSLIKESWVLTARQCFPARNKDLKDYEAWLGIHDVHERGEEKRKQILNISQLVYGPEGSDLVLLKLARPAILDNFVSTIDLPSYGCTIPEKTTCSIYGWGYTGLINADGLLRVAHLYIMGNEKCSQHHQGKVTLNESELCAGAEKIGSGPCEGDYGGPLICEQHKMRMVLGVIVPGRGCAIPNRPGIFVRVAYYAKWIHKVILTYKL

binding result	Binder
binds	B1
no binding	B2
no binding	B3
no binding	B4
no binding	B5

Molecular target: T1, recombinant mouse-human-mouse (mhm) …
Test: as above
Procedure: as §1, §2

binding result	Binder
no binding	B1
no binding	B2
no binding	B3
no binding	B4
no binding	B5

molecular target: hHGF-Fc G555E (recombinant hHGF protein containing a glycine to glutamate substitution at position 555) (human); test: as above
Procedure: as §1, §2

Sequence of hHGF-Fc G555E (recombinant hHGF protein containing a glycine to glutamate substitution at position 555) (human) (chain, as listed by the source G555E G555E limits assumed): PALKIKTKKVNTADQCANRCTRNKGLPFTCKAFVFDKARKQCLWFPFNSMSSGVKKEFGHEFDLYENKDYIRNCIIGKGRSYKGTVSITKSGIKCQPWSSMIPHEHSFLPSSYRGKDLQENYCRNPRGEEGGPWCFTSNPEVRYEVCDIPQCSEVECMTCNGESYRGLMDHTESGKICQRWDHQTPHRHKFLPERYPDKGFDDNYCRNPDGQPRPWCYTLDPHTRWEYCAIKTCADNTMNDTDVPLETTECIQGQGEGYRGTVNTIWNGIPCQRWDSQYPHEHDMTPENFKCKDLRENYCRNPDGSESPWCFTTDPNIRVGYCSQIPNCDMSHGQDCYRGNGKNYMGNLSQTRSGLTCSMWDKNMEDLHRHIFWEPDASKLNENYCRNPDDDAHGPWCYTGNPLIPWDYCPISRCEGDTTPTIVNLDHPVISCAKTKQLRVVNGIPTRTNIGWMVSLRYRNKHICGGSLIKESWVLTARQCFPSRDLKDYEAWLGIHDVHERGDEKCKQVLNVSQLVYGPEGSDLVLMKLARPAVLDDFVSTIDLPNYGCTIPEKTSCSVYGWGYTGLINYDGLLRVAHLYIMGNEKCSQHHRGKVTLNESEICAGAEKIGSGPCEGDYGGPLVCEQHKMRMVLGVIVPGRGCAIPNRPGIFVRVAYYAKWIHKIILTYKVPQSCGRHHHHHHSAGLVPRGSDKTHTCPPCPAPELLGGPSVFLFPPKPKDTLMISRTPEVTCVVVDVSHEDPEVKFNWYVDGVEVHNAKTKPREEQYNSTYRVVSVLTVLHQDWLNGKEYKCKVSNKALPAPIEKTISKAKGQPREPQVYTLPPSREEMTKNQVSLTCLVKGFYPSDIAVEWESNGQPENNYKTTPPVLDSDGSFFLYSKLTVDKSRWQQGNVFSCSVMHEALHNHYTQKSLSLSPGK

binding result	Binder
binds	B1
binds	B2
binds	B3
binds	B4
binds	B5

molecular target: hHGF-Fc C561R (recombinant hHGF protein containing a cysteine to arginine substitution at position 561) (human); test: as above
Procedure: as §1, §2

Sequence of hHGF-Fc C561R (recombinant hHGF protein containing a cysteine to arginine substitution at position 561) (human) (chain, as listed by the source C561R C561R limits assumed): as the sequence (chain, as listed by the source G555E G555E limits assumed) above, with E501G, C507R counted along it

binding result	Binder
binds	B1
binds	B2
binds	B3
binds	B4
binds	B5

molecular target: T2, recombinant human HGF (R&D Systems, …); test: SPR, antibody captured by anti-mouse Ig, HGF injected, 25 C
Procedure: Rabbit anti-mouse immunoglobulins (BIAcore, Catalog No. BR-1005-14) were immobilized on carboxymethylated dextran CM5 sensor chips (BIAcore, Catalog No. BR-1006-68) by amine coupling (BIAcore, Catalog No. BR-1000-50) using a standard coupling protocol according to manufacturer's instructions. The analyses were performed at 25° C. using PBS (GIBCO, Catalog No. 14040-133) containing 0.05% surfactant P20 (BIAcore, Catalog No. BR-1000-54), 2 mg/mL BSA (EMD, Catalog No. 2930), and 10 mg/mL CM-Dextran Sodium salt (Fluka, Catalog No. 86524) as running buffer.
The antibodies were captured in an individual flow cell at a flow rate of 10 μL/min. Injection time was variable for each antibody to yield approximately 20 RU of antibody captured for each cycle. […] The dissociation phase was monitored for 15 or 90 minutes, depending on concentration. The surface then was regenerated with 10 mM Glycine-HCl, pH 1.7 (BIAcore, Catalog No. BR-1003-54) injected for 3 minutes at a flow rate of 60 μL/min before another cycle was initiated.
Kinetic parameters were determined using the kinetic function of the BIAevalutation software with reference subtraction.

Kd [nM]	koff [s⁻¹]	kon [M⁻¹ s⁻¹]	Binder
0.0301	5.2e-05	1.7e+06	B3
0.103	0.00016	1.6e+06	B4
0.017	3.9e-05	2e+06	B5

molecular target: T2, recombinant human HGF (R&D Systems, …); test: competition ELISA (DELFIA): antibody inhibits c-Met binding to plate-coated HGF
Procedure: The plates then were blocked with 200 μL of 5% non-fat dry milk in PBS for 1 hour at room temperature. […] 100 μL of sample per well was transferred to the assay plate and incubated overnight at 4° C.
The resulting plates then were washed three times with PBS-0.1% Tween 20, and incubated for 1 hour at room temperature with Eu-labeled Streptavidin (Wallac, Catalog No. 1244-360) diluted 1:1000 in DELFIA assay buffer (Wallac, Catalog No. 4002-0010). The resulting plates were washed 3 times with DELFIA wash solution (Wallac, Catalog No. 4010-0010) and incubated with 100 μL/well DELFIA enhancement solution (Wallac #4001-0010) for 15 minutes at room temperature with agitation.
The plates were read on Victor³V instrument (Perkin Elmer) using the Europium method.

IC50 [nM]	Binder
5.36	B1
5.66	B2
5.65	B3
5.26	B4
